Residue numbers refer to the chain shown, from its start.
B1: 601-51 (antibody, V domains shown)
VH: not shown
VL: QSALTQPASVSGSPGQSITISCTGTSSDFGDYDYVSWYQQHPGKAPKLMIYDVSDRPSGVSNRFSGSKSGNTASLTISGLQAEDEADYFCSSFTTSSTLVFGGGTKLTVL
modifications: Zenon Alexa Fluor 647 label, bound non-covalently to the Fc, is not carried in the letters
notes: the phage clone of the same number is m19; also called Antibody 601-51; copies: 2 + 2
B2: 601-56 (antibody, V domains shown)
VH: QLQLQESGPGLVKPSETLSLTCTVSGGSISSSSYYWGWIRQPPGKGLEWIGSIYYSGSTYYNPSLKSRVTISVDTSKNQFSLKLGSVTAADTAVYYCARHDGTDAFDIWGQGTTVTVSS
VL: B1 VL with A3V, F93L
modifications: Zenon Alexa Fluor 647 label, bound non-covalently to the Fc, is not carried in the letters
notes: the phage clone of the same number is m28; also called Antibody 601-56; copies: 2 + 2
B3: 601-137 (antibody, V domains shown)
VH: QVQLQQSGAEVKKPGASVKVSCKASGYTFSRYYIHWVRQAPGQGLEWMGIINTDGGTTTYAQKFQGRLTMTRDTSTSTVYMELSSLRSDDTAVYYCARDYGTIDARRFDYWGQGTLVTVSS
VL: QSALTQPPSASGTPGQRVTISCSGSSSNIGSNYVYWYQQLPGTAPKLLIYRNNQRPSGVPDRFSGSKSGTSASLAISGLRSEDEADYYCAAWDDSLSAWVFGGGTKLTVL
modifications: Non-covalent Zenon Alexa Fluor 647 label in the assay, not part of the letters
notes: the phage clone of the same number is m26; also called Antibody 601-137; copies: 2 + 2
B4: 601-69 (antibody, V domains shown)
VH: QVQLVQSGAEVKKPGESLKISCKGSGYSFTSYWIGWVRQMPGKGLEWMGIIYPGDSDTRYSPSFQGQVTISADKSISTAYLQWSSLKASDTAMYYCARLSSSSYDAFDIWGQGTMVTVSS
VL: QSALTQPASVSGSPGQSITISCTGTSSDVGGYNYVSWYQQHPGKAPKLMIYDVSNRPSGVSNRFSGSKSGNTASLTISGLQAEDEADYYCSSYTSSSIPWVFGGGTKLTVL
modifications: Zenon Alexa Fluor 647 label, bound non-covalently to the Fc, is not carried in the letters
notes: the phage clone of the same number is m50; also called Antibody 601-69; copies: 2 + 2
B5: 601-1 (antibody, V domains shown)
VH: EVQLVESGGGLVKPGGSLRLSCAASGFTFSDYYMSWIRQAPGKGLEWVSYISDSTNTIYYADSVKGRFTVSRDNPKNSLYLQMISLRAEDTAVYYCARAVGAGEGFDHWGQGTLVTVSS
VL: not shown
modifications: Zenon Alexa Fluor 647 label, bound non-covalently to the Fc, is not carried in the letters
notes: the phage clone of the same number is m13; also called Antibody 601-1; copies: 2 + 2
B6: 601-86 (antibody, V domains shown)
VH: QVTLKESGPTLLKPTQTLTLTCTFSGFSLSTRGVGVGWIRQPPGQALEWLTLIYWDDDKRYSPSLKSRLTITKDTSKNQVVLTMTNMESVDTATYYCAQQTMTGAFDIWGQGTTVTVSS
VL: DIQMTQSPSSVSASVGDRVTITCRASQGISTLLAWYQQKPGKAPKLLISSASSLQSGVPARFSGSGSGTDFTLTISSLQPEDFATYYCQQSYRAPTFGQGTKVEIK
modifications: Zenon Alexa Fluor 647 label, bound non-covalently to the Fc, is not carried in the letters
notes: the phage clone of the same number is m27; also called Antibody 601-86; copies: 2 + 2
B7: 601-43 (antibody, V domains shown)
VH: QVQLQQSGAEVKKPGASVRVSCKASGYSFGNNGITWVRQAPGQGLEWMGWISTYNGNTNYAQKLQGRVTMTTDTSTSTAYMELRSLRSDDTAVYYCARDYYSDSSGYWDDAFDIWGQGTTVTVSS
VL: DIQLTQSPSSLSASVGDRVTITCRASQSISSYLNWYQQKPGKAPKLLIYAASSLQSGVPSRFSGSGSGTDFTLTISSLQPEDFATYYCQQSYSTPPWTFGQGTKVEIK
modifications: Zenon Alexa Fluor 647 label, bound non-covalently to the Fc, is not carried in the letters
notes: the phage clone of the same number is m16; also called Antibody 601-43; copies: 2 + 2

Target: T1, human ROR1 on the cell surface (human, UniProt Q01973 30-937)
T1 construct: Endogenous ROR1 of MDA-MB-231, A549, H1299, Jeko-1, primary CLL cells; also called cell surface ROR1; ROR1 positive cells
T1 sequence (Q01973 30-937 limits assumed): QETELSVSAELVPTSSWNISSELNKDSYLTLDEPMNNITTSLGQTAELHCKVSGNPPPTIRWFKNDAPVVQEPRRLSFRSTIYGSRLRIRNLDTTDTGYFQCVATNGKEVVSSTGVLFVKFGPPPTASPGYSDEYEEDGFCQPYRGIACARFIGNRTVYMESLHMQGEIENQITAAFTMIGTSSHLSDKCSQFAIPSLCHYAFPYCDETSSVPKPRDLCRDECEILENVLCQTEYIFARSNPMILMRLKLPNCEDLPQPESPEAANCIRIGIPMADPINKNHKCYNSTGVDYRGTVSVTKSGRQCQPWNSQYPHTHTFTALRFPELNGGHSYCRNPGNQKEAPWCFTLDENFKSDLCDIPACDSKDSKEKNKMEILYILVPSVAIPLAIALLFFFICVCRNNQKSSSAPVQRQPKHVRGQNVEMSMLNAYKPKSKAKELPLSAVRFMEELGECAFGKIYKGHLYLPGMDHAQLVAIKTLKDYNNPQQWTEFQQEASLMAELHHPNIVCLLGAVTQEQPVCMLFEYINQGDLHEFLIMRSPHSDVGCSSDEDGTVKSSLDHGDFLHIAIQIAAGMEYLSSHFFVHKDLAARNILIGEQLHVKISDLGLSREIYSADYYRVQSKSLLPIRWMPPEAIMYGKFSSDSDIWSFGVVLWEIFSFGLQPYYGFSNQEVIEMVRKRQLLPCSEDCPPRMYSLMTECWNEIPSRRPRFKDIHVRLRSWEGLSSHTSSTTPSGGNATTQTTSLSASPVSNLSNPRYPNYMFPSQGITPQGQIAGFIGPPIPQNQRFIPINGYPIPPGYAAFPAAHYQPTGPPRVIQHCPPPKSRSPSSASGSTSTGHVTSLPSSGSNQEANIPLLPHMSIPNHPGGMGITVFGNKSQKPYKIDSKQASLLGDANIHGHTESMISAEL
Assay: flow cytometry, Zenon Alexa Fluor 647-labelled antibody on CD5+ CD19+ CLL cells of patient 13, MFI of the isotype control at the same concentration subtracted
Description: Anti-ROR1 and control IgG1 antibodies were labeled using a Zenon® Alexa Fluor® 647 human IgG labeling kit (Life Technologies) according to the manufacturer's directions. Frozen peripheral blood mononuclear cells (PBMC) from CLL patients (AllCells LLC) were thawed and washed in FACS buffer (PBS, 2% heat inactivated FBS, 0.1% NaN3). CLL cells were counted and resuspended at 4×10E6 cell/mL in FACS buffer. 2×10E5 cells per test were then incubated in […] FACS buffer with phycoerythrin (PE)-labeled anti-CD5, […] isothiocyanate (FITC)-labeled anti-CD19 (BD Biosciences) and Zenon® Alexa Fluor® 647-labelled anti-ROR1 or control human IgG1 ET901 (Eureka Therapeutics) for 30 minutes on ice. Following incubation, the cells were washed twice in FACS buffer and fixed in 2% paraformaldehyde in PBS (final concentration). Cells were run on a BD LSRII flow cytometer (BD Biosciences) and analyzed using FlowJo software (Treestar).
CLL cells identified as CD5 and CD19 double positive were assessed for anti-ROR1 or control Ig staining.

Row | Binder | binding result
1 | B1 | binds
2 | B2 | binds
3 | B3 | binds
4 | B4 | binds
5 | B5 | binds
6 | B6 | binds
7 | B7 | binds

Source: US20180142016A1 (EUREKA THERAPEUTICS, published 2018)
